Reference: paper doi:10.1101/2025.08.30.673243

Columns and labels:
[1] = biological target: HeLa cohesin (unlabelled cohesin-STAG1) (human (endogenous in HeLa)) (UniProt Q14683); test: single-molecule fluorescence imaging of DNA loop extrusion
[2] = biological target: HeLa cohesin (unlabelled cohesin-STAG1) (human (endogenous in HeLa)) (UniProt Q14683); test: as above; remark: listed apart in the source

Sequence of UniProt Q14683 (Q14683 whole entry, chain 1 of 4): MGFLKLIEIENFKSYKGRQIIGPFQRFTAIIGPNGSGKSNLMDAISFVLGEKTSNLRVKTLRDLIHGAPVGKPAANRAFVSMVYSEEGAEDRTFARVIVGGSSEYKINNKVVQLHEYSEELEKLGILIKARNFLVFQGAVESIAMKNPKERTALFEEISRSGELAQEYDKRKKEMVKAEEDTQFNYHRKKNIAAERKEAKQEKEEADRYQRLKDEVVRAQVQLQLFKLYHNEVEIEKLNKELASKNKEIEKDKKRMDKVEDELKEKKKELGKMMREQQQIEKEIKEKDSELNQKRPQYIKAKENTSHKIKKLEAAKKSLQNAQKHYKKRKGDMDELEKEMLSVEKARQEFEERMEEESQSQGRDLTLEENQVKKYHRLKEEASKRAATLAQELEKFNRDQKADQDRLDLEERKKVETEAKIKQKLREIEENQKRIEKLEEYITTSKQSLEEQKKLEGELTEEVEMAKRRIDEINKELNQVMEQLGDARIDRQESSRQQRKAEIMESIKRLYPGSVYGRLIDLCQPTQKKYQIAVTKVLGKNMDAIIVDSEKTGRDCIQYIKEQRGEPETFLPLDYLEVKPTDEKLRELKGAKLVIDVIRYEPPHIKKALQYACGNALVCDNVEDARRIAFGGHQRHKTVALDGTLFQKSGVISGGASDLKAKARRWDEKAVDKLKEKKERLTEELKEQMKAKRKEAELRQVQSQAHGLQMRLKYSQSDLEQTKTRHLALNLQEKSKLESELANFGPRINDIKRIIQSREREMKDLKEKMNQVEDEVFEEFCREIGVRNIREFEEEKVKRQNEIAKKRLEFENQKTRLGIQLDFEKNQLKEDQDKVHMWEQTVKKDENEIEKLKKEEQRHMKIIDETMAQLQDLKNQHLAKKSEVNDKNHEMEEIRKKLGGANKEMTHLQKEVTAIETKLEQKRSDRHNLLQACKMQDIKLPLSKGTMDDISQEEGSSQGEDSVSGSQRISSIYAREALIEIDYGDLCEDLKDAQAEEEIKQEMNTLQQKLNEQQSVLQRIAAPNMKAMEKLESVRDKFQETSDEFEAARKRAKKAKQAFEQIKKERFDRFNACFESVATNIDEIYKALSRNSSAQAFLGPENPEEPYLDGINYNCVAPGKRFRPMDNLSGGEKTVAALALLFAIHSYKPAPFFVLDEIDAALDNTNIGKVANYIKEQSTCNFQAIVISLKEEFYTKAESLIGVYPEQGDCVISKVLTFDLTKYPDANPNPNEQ
Sequence of UniProt Q14683 (Q9UQE7 whole entry, chain 2 of 4, further chain): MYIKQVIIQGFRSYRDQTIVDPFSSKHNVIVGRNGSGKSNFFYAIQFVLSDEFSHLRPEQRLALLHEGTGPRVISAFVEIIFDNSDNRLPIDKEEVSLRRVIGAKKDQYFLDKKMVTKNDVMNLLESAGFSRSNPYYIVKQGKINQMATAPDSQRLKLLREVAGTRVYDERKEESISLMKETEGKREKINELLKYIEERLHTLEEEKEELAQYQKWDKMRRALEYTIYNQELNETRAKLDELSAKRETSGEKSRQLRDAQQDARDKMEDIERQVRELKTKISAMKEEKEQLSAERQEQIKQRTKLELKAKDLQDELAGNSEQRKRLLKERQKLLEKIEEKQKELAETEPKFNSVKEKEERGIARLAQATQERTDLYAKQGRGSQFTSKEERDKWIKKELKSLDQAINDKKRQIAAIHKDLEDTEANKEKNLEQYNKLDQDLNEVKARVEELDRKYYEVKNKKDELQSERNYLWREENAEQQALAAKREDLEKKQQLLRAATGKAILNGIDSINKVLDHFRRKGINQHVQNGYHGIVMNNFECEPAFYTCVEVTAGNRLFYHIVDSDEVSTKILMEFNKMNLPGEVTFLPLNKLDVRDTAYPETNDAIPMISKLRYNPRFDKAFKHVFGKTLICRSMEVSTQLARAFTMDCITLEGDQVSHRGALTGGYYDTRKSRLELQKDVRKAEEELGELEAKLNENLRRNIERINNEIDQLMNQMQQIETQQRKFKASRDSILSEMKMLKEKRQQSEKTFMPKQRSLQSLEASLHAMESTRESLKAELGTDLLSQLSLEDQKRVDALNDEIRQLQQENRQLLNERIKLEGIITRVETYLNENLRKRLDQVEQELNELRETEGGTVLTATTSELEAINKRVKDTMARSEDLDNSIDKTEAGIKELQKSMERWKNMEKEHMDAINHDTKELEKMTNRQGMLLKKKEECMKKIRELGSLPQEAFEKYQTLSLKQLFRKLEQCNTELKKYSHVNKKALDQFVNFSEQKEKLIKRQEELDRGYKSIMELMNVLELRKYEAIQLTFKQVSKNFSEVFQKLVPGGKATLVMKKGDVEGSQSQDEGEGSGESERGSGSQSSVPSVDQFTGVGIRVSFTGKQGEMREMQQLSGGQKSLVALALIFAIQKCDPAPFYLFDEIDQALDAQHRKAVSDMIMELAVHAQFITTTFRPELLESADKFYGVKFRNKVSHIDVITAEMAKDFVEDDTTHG
Sequence of UniProt Q14683 (O60216 whole entry, chain 3 of 4, further chain): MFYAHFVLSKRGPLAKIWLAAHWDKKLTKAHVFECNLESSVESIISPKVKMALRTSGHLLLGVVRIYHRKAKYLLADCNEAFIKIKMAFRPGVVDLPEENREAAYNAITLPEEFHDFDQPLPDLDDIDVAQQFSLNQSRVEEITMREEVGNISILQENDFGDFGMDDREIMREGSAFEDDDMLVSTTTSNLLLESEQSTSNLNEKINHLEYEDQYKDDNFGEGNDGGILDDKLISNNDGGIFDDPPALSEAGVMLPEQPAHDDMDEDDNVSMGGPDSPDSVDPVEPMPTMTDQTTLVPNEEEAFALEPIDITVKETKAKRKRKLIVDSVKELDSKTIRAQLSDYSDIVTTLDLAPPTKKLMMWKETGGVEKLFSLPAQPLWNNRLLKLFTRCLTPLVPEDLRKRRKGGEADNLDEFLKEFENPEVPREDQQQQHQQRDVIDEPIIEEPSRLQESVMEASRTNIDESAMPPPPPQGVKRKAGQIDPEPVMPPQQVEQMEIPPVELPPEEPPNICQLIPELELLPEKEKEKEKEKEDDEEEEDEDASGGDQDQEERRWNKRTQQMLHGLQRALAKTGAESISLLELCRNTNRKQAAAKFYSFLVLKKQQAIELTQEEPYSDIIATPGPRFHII
Sequence of UniProt Q14683 (Q8WVM7 whole entry, chain 4 of 4, further chain): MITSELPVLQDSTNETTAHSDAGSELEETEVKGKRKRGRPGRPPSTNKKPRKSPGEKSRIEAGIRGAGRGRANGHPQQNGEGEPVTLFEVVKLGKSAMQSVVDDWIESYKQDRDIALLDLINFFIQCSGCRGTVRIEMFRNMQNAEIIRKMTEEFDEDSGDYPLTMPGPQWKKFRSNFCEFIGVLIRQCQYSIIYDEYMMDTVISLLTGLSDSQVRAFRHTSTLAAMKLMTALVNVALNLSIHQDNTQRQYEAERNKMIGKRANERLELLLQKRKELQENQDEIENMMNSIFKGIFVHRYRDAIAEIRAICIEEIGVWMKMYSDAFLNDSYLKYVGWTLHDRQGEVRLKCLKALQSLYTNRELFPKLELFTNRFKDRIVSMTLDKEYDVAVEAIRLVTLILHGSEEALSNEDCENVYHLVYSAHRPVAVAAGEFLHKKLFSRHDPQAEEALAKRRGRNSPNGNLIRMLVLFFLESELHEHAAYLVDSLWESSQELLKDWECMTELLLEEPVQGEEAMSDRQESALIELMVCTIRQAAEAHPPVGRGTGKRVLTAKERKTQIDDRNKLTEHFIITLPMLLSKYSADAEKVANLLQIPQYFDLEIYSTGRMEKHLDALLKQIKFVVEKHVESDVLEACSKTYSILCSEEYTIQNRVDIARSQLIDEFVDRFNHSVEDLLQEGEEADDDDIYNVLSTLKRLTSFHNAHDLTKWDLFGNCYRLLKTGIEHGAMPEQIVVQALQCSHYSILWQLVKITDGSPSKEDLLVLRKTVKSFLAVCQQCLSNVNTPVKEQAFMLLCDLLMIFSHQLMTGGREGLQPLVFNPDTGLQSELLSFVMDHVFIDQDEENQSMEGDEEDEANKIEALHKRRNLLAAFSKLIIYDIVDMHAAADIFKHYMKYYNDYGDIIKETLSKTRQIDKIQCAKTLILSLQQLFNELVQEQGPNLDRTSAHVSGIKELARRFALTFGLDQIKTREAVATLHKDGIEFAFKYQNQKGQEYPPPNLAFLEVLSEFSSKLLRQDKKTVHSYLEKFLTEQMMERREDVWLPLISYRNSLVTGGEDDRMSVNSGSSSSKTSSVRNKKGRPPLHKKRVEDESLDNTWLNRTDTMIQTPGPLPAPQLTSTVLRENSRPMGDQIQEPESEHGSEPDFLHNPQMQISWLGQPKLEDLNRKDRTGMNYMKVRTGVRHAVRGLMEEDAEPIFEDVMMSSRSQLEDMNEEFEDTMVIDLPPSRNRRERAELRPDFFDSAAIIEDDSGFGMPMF

median residence time of NIPBL on loops, no PDS5B added [1]	residence time of NIPBL on loops on which NIPBL was exchanged with PDS5B [1]	median time for which NIPBL and PDS5B were both on the loop during exchange [2]	Molecule
50 s	38 s		NIPBL-ΔN labelled with ATTO550 (BB241) (domain or fragment)
		3 s	PDS5B labelled with JF646 (natural protein, JF646-HaloTag ligand on the HaloTag) MAHSKTRTNDGKITYPPGVKEISDKISKEEMVRRLKMVVKTFMDMDQDSEEEKELYLNLALHLASDFFLKHPDKDVRLLVACCLADIFRIYAPEAPYTSPDKLKDIFMFITRQLKGLEDTKSPQFNRYFYLLENIAWVKSYNICFELEDSNEIFTQLYRTLFSVINNGHNQKVHMHMVDLMSSIICEGDTVSQELLDTVLVNLVPAHKNLNKQAYDLAKALLKRTAQAIEPYITNFFNQVLMLGKTSISDLSEHVFDLILELYNIDSHLLLSVLPQLEFKLKSNDNEERLQVVKLLAKMFGAKDSELASQNKPLWQCYLGRFNDIHVPIRLECVKFASHCLMNHPDLAKDLTEYLKVRSHDPEEAIRHDVIVSIVTAAKKDILLVNDHLLNFVRERTLDKRWRVRKEAMMGLAQIYKKYALQSAAGKDAAKQIAWIKDKLLHIYYQNSIDDRLLVERIFAQYMVPHNLETTERMKCLYYLYATLDLNAVKALNEMWKCQNLLRHQVKDLLDLIKQPKTDASVKAIFSKVMVITRNLPDPGKAQDFMKKFTQVLEDDEKIRKQLEVLVSPTCSCKQAEGCVREITKKLGNPKQPTNPFLEMIKFLLERIAPVHIDTESISALIKQVNKSIDGTADDEDEGVPTDQAIRAGLELLKVLSFTHPISFHSAETFESLLACLKMDDEKVAEAALQIFKNTGSKIEEDFPHIRSALLPVLHHKSKKGPPRQAKYAIHCIHAIFSSKETQFAQIFEPLHKSLDPSNLEHLITPLVTIGHIALLAPDQFAAPLKSLVATFIVKDLLMNDRLPGKKTTKLWVPDEEVSPETMVKIQAIKMMVRWLLGMKNNHSKSGTSTLRLLTTILHSDGDLTEQGKISKPDMSRLRLAAGSAIVKLAQEPCYHEIITLEQYQLCALAINDECYQVRQVFAQKLHKGLSRLRLPLEYMAICALCAKDPVKERRAHARQCLVKNINVRREYLKQHAAVSEKLLSLLPEYVVPYTIHLLAHDPDYVKVQDIEQLKDVKECLWFVLEILMAKNENNSHAFIRKMVENIKQTKDAQGPDDAKMNEKLYTVCDVAMNIIMSKSTTYSLESPKDPVLPARFFTQPDKNFSNTKNYLPPEMKSFFTPGKPKTTNVLGAVNKPLSSAGKQSQTKSSRMETVSNASSSSNPSSPGRIKGRLDSSEMDHSENEDYTMSSPLPGKKSDKRDDSDLVRSELEKPRGRKKTPVTEQEEKLGMDDLTKLVQEQKPKGSQRSRKRGHTASESDEQQWPEEKRLKEDILENEDEQNSPPKKGKRGRPPKPLGGGTPKEEPTMKTSKKGSKKKSGPPAPEEEEEEERQSGNTEQKSKSKQHRVSRRAQQRAESPESSAIESTQSTPQKGRGRPSKTPSPSQPKKNVRVGRSKQAATKENDSSEEVDVFQGSSPVDDIPQEETEEEEVSTVNVRRRSAKRERR
